Earlier results as cited in PMC6728138.

What was measured:
AKAP79 (Homo sapiens) = AKAP79 (Homo sapiens) (UniProt P24588)
[1] = molecular target: PVIVIT peptide (synthetic construct)

Sequence of AKAP79 (Homo sapiens) (P24588 whole entry): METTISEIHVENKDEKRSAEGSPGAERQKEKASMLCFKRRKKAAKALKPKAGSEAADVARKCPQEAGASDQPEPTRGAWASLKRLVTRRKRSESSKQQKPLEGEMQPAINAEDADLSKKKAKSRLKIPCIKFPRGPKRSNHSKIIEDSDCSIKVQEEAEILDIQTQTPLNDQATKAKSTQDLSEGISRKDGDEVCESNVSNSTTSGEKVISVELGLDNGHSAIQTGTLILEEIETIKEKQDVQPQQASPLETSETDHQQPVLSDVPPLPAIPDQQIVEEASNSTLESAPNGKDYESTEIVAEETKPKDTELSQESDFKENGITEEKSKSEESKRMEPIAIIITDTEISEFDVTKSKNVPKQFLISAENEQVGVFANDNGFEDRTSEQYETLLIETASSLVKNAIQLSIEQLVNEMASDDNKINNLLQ

- Kd (AKAP79 (Homo sapiens)): 500 nM
- Kd [1]: 500 nM
Substance: Calcineurin (from UniProt Q08209)
